Here are results for five molecules from US20250250357A1 (NANJING ZAIMING PHARMACEUTICAL, published 2025).

Test [1] has as its target T1, human MSLN-R3-his protein (human, UniProt Q13421 487-598).
T1 construct: Region 3 of human mesothelin, made in HEK293E cells, His-tagged; also called human MSLN-R3 protein; hMSLN-R3-his; not shown: His tag
The experiment in a line: ELISA on coated MSLN-R3; antibody 100 nM.

Test [2] deals with T2, human MSLN-R1-his protein (human, UniProt Q13421 296-390).
T2 construct: Region 1 of human mesothelin, made in HEK293E cells, His-tagged; also called human MSLN-R1 protein; hMSLN-R1-his; not shown: His tag
T2 chain: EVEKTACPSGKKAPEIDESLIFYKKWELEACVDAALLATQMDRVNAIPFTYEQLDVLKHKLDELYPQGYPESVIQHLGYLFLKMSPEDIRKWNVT
The experiment in a line: ELISA on coated MSLN-R1; antibody 1 nM. Background: An ELISA detects its analyte on a solid surface through an enzyme-linked reagent.

The target in test [3] is T1, human MSLN-R3-his protein. Nature of the test: ELISA on coated MSLN-R3; antibody 10 nM.
Protocol: (§1) The plate was sealed with a plastic film and incubated at 4° C. overnight. The next day, the plate was washed twice with PBST, and a blocking buffer [PBS+2% (w/w) BSA] was added for blocking at room temperature for 2 h. The blocking buffer was discarded, and a chimeric antibody or negative control antibody serially diluted from 100 nM was added at 50 μL/well. After incubation at 37° C. for 2 h, the plate was washed 3 times with PBST. […] After incubation at 37° C. for 2 h, the plate was washed 5 times with PBST. A TMB substrate was added at 50 μL/well for incubation at room temperature for 5-10 min, and then a stop solution (1.0 N HCl) was added at 50 μL/well.
The target of test [4] is T1, human MSLN-R3-his protein. The experiment in a line: ELISA on coated MSLN-R3; antibody 0.001 nM.
Protocol: as §1
Test [5] deals with T1, human MSLN-R3-his protein. The experiment in a line: ELISA on coated MSLN-R3; antibody 0.01 nM.
Protocol: as §1
The target in test [6] is T3, human MSLN-R2-his protein (human, UniProt Q13421 391-486).
T3 construct: Region 2 of human mesothelin, made in HEK293E cells, His-tagged; also called human MSLN-R2 protein; hMSLN-R2-his; not shown: His tag
Nature of the test: ELISA on coated MSLN-R2; antibody 1 nM.

In test [7] the target is T3, human MSLN-R2-his protein. Nature of the test: ELISA on coated MSLN-R2; antibody 0.01 nM.
Test [8] concerns the target T3, human MSLN-R2-his protein. The experiment in a line: ELISA on coated MSLN-R2; antibody 0.1 nM.
Protocol: as §1
The target of test [9] is T1, human MSLN-R3-his protein. The experiment in a line: ELISA on coated MSLN-R3; antibody 0.0001 nM.
Protocol: as §1
Test [10] has as its target T2, human MSLN-R1-his protein. Nature of the test: ELISA on coated MSLN-R1; antibody 100 nM.
Protocol: as §1
Test [11] concerns the target T1, human MSLN-R3-his protein. Nature of the test: ELISA on coated MSLN-R3; antibody 1 nM.
Protocol: as §1
The target of test [12] is T2, human MSLN-R1-his protein. The experiment in a line: ELISA on coated MSLN-R1; antibody 0.01 nM.
The target of test [13] is T2, human MSLN-R1-his protein. Nature of the test: ELISA on coated MSLN-R1; antibody 0.1 nM.
Protocol: as §1
Test [14] has as its target T2, human MSLN-R1-his protein. The experiment in a line: ELISA on coated MSLN-R1; antibody 10 nM.
Protocol: as §1
Test [15] concerns the target T3, human MSLN-R2-his protein. Nature of the test: ELISA on coated MSLN-R2; antibody 0.0001 nM.
In test [16] the target is T1, human MSLN-R3-his protein. The experiment in a line: ELISA on coated MSLN-R3; no antibody (blank).
In test [17] the target is T2, human MSLN-R1-his protein. The experiment in a line: ELISA on coated MSLN-R1; antibody 0.0001 nM.
Protocol: as §1
The target of test [18] is T3, human MSLN-R2-his protein. Nature of the test: ELISA on coated MSLN-R2; antibody 0.001 nM.
Protocol: as §1
Test [19] addresses T2, human MSLN-R1-his protein. Nature of the test: ELISA on coated MSLN-R1; antibody 0.001 nM.
Test [20] concerns the target T1, human MSLN-R3-his protein. Nature of the test: ELISA on coated MSLN-R3; antibody 0.1 nM.
Test [21] has as its target T2, human MSLN-R1-his protein. Nature of the test: ELISA on coated MSLN-R1; no antibody (blank).
Protocol: as §1
In test [22] the target is T3, human MSLN-R2-his protein. Nature of the test: ELISA on coated MSLN-R2; antibody 10 nM.
Protocol: as §1
In test [23] the target is T3, human MSLN-R2-his protein. The experiment in a line: ELISA on coated MSLN-R2; no antibody (blank).
Protocol: as §1
Test [24] deals with T3, human MSLN-R2-his protein. The experiment in a line: ELISA on coated MSLN-R2; antibody 100 nM.
Protocol: as §1

T3 sequence (Q13421 other isoform, or with tags, fused parts or gaps): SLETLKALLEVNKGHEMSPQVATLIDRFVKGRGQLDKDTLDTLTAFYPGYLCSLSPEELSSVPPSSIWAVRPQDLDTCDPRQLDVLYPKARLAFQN
T1 sequence (Q13421 495-606): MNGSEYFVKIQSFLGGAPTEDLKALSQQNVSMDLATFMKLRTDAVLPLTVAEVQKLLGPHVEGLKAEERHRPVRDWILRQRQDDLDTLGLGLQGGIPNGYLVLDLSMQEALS

B1: S009-F8-19.21 (antibody, human IgG1, kappa, V domains shown)
VH: EFQLQQSGPELVKPGASVKISCKTSGYSFTDYNMNWVKQSNGKSLEWIGVINPNYGTTGYNQKFKGKATLTVDQSSSTAYMQLNSLTSEDSAVYYCARGGYDGEAMDYWGHGTSVTVSS
VL: QIVLTQSPAIMSASPGEKVTMTCSASSSVNYMHWYQQKSGTSPKRWIYDTSKLASGVPARFSGSGSGTSYSLTISSMEAEDAATYYCQQWSSYPPTFGGGTKLEIKR
Regarding B1, the OD450 in test [1] came out at 0.09 OD450; in test [2] it was 1.82 OD450; in [3] it was 0.05 OD450; in [4], 0.04 OD450; in test [5] it was 0.04 OD450; in [6] it was 0.05 OD450. The OD450 in [7] is 0.04 OD450; in test [8], 0.04 OD450; in [9] it was 0.04 OD450; in test [10], 2.13 OD450; in test [11], 0.04 OD450; in test [12], 0.39 OD450. The OD450 in [13] came to 1.46 OD450; in test [14] it was 2.11 OD450; in test [15], 0.05 OD450; in test [16] it was 0.05 OD450; in test [17] it was 0.06 OD450; in [18], 0.04 OD450. In addition, the OD450 in [19] is 0.1 OD450; in test [20] it was 0.04 OD450; in test [21] it was 0.05 OD450; in test [22] it was 0.06 OD450; in [23], 0.05 OD450; in test [24], 0.06 OD450.

B2: S009-F8-22.23 (antibody, human IgG1, kappa, V domains shown)
VH: QVQLKQSGPGLVQPSQSLSITCTVSGFSLFSYGVHWVRQSPGKGLEWLGVIWSGGSTDYNAAFISRLSISKDNSKSQVFFKMNSLQADDTAMYYCARNGGSMITTLYYAMDYWGQGTSVTVSS
VL: DVVMTQTPLSLPVSLGDQASISCRSSQSLVHSYGNTYLHWYLQKPGQSPKLLIYKVSNRFSGVPDRFSGSGSGTDFTLKISRVEAEDLGVYFCSQSTHIPFTFGGGTKLEIKR
Regarding B2, the OD450 in test [1] came out at 0.1 OD450; in test [2], 2.34 OD450; in test [3], 0.05 OD450; in test [4], 0.04 OD450; in test [5] it was 0.04 OD450; in [6], 0.08 OD450. The OD450 in test [7] was 0.04 OD450; in test [8] it was 0.05 OD450; in [9], 0.04 OD450; in test [10] it was 2.55 OD450; in test [11] it was 0.04 OD450; in [12], 0.78 OD450. Also, the OD450 in test [13] amounted to 1.72 OD450; in [14], 2.51 OD450; in [15] it was 0.04 OD450; in [16], 0.04 OD450; in test [17], 0.26 OD450; in test [18], 0.05 OD450. Further, the OD450 in test [19] is 0.36 OD450; in test [20] it was 0.04 OD450; in test [21] it was 0.04 OD450; in test [22] it was 0.11 OD450; in test [23] it was 0.04 OD450; in test [24] it was 0.17 OD450.

B3: S009-F8-27.1 (antibody, human IgG1, kappa, V domains shown)
VH: EVQLVESGGGLVKPGGSLKLSCAASGFTFSSYAMSWVRQTPEKRLEWVATISDGGNYTYYPDNVKGRFTISRDNAKNNLYLQMSHLKSEDTAMYYCAGDRGYPYAMDSWGQGTSVTVSS
VL: NIMMTQSPSSLAVSAGEKVTMSCKSSQSVLYSSNQKNYLAWYQQKPGQSPKLLIYWASTRESGVPDRFTGSGSGTDFTLTISNVHAEDLAVYYCHQYLSSLTFGAGTKLELKR
In the case of B3, the OD450 in test [1] worked out at 0.06 OD450; in test [2], 0.05 OD450; in test [3], 0.05 OD450; in test [4] it was 0.05 OD450; in [5], 0.04 OD450; in test [6], 0.05 OD450. In addition, the OD450 stood at 0.04 OD450 in test [7]; 0.04 OD450 in test [8]; 0.04 OD450 in test [9]; 0.35 OD450 in [10]; 0.04 OD450 in test [11]; 0.04 OD450 in test [12]. The OD450 in test [13] was 0.05 OD450; in test [14], 0.08 OD450; in [15], 0.04 OD450; in test [16], 0.05 OD450; in [17], 0.04 OD450; in test [18], 0.05 OD450. Also, the OD450 came to 0.04 OD450 in test [19]; 0.07 OD450 in test [20]; 0.05 OD450 in [21]; 0.05 OD450 in [22]; 0.05 OD450 in test [23]; 0.05 OD450 in test [24].

B4: S009-F8-28.23 (antibody, human IgG1, kappa, V domains shown)
VH: EVQLVESGGDLVKPGGSLKLSCAASGFTFSSYAMSWVRQTPEKRLEWVATISDGGSYTYYPDNVEGRFTISRDNAKNNLYLQMSHLKSEDTAMYYCAGDRGYSYALDYWGQGTSVTVSS
VL: NIMMTQSPSSLAVSAGEKVTMSCKSSQSVLYSSNQKNYLAWYQQKPGQSPKLLIYWASTRESGVPDRFTGSGSGTDFTLTISSVQAEDLAVYYCHQYLSSLTFGAGTKLELKR
With B4, the OD450 came to 0.07 OD450 in [1]; 0.04 OD450 in test [2]; 0.05 OD450 in [3]; 0.04 OD450 in test [4]; 0.07 OD450 in [5]; 0.04 OD450 in test [6]. Also, the OD450 in test [7] was 0.04 OD450; in test [8], 0.04 OD450; in test [9], 0.04 OD450; in test [10] it was 0.05 OD450; in [11] it was 0.04 OD450; in test [12], 0.04 OD450. For the same molecule, the OD450 in [13], in test [14], in test [15], in test [16], in [17] and in test [18] was 0.04 OD450 in each case. Besides, the OD450 in [19] came to 0.05 OD450; in [20], 0.04 OD450; in test [21] it was 0.04 OD450; in test [22], 0.04 OD450; in [23], 0.04 OD450; in test [24], 0.05 OD450.

B5: S009-F8-24.14 (antibody, human IgG1, kappa, V domains shown)
VH: EFQLQQSGPELVKPGASVKISCKASGYSFTDYNMNWVKLSNGKSLEWIGVIIPNYGTSSYNQKFKGKATLTVDQSSSTAYMQLNSLTSEDSAVYYCARWDNYYGSSLDYWGQGTTLTVSS
VL: DIVMTQSQKFMSTTVGDRVSITCKASQNVGTAVAWYQQKPGQSPKLLIYSASNRYTGVPDRFTGSGSGTDFILTISNMQSEDLADYFCQQYSSYPLTFGAGTKLELKR
With B5, the OD450 in test [1] stood at 0.06 OD450; in [2], 1.63 OD450; in [3] it was 0.05 OD450; in [4] it was 0.04 OD450; in test [5], 0.04 OD450; in test [6], 0.04 OD450. The OD450 in test [7] was 0.04 OD450; in test [8] it was 0.04 OD450; in test [9] it was 0.04 OD450; in test [10], 2.34 OD450; in test [11], 0.04 OD450; in test [12], 0.13 OD450. In addition, the OD450 in test [13] came out at 0.64 OD450; in test [14], 2.24 OD450; in [15] it was 0.04 OD450; in test [16] it was 0.04 OD450; in test [17], 0.05 OD450; in [18], 0.04 OD450. The OD450 stood at 0.07 OD450 in test [19]; 0.04 OD450 in test [20]; 0.04 OD450 in test [21]; 0.04 OD450 in [22]; 0.04 OD450 in test [23]; 0.05 OD450 in test [24].
